The values below are quoted from earlier work in article PMC6047922.

As a reminder, the Kd is the free concentration of one partner at which half of the binding sites on the other are occupied at equilibrium, for simple one-to-one binding.

The target of the series is ttRNH* Icore (Thermus thermophilus) (UniProt Q72IE1). Briefly: analytical ultracentrifugation.

As for ttRNH* Icore (from UniProt Q72IE1), the Kd was 150 µM.
